Source: the RNAGym collection of RNA variant scans (doi:10.1093/nar/gkz1192)

B1: CPEB3 Ribozyme (parent)
chain: UAACAGGGGGCCACAGCAGAAGCGUUCACGUCGCAGCCCCUGUCAGAUUCUGGUGAAUCUGCGAAUUCUGCUGUAUAUCUC

Variants of: B1
Assay: self-cleavage, relative activity (ratio to wild type); higher = more cleavage; in vitro, sequencing
How it was run: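 Relative activity compares each variant's cleaved/total read fraction with that of the unmutated ribozyme. To get these fractions, barcoded CPEB3 ribozyme libraries from rounds of error-prone PCR were transcribed with T7 RNA polymerase for 5 hours at 37°C and then given 15 min of DNase I treatment before EDTA was added. The RNAs were reverse transcribed with template switching and sequenced on Illumina, and DNA sequencing linked barcodes to variants. A minimum of 5 reads applied, and three batches were averaged.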
Variant C37G U48C has a self-cleavage of 0.45.
C38A C40A gave a self-cleavage of 0.05.
C38A C40U showed a self-cleavage of 0.22.
C39A A64U showed a self-cleavage of 0.22.
C39A A64G showed a self-cleavage of 0.05.
Variant C38G U69A has a self-cleavage of 0.19.
In the case of C37G U43C, the self-cleavage is reported as 0.29.
C38A A56G showed a self-cleavage of 0.26.
Work on C38A A56U yielded a self-cleavage of 0.27.
Variant C38A A56C has a self-cleavage of 0.1.
In the case of G36C G61U, the self-cleavage is reported as 0.12.
Variant G36C G61C has a self-cleavage of 0.14.
With C37A U72C the self-cleavage was 0.33.
G36C U58C gave a self-cleavage of 0.14.
Work on C37G C59G yielded a self-cleavage of 0.13.
For C39A C40U, the self-cleavage was 0.38.
C38G A77U gave a self-cleavage of 0.31.
For C39A U51C, the self-cleavage was 0.34.
C38U U51A gave a self-cleavage of 0.46.
In the case of C37G A45U, the self-cleavage is reported as 0.13.
For C37G A45G, the self-cleavage was 0.7.
C39A U49A showed a self-cleavage of 0.23.
In the case of C38A U41A, the self-cleavage is reported as 0.19.
With C38A U41C the self-cleavage was 0.43.
With C37U G63U the self-cleavage was 0.84.
C37U G63A showed a self-cleavage of 0.54.
Work on C38U G46A yielded a self-cleavage of 0.24.
For G36U G42A, the self-cleavage was 0.21.
C39A A65G gave a self-cleavage of 0.11.
With G36U U72C the self-cleavage was 0.13.
With G36U U67A the self-cleavage was 0.64.
Work on G36U U51G yielded a self-cleavage of 0.15.
Work on C37A A65U yielded a self-cleavage of 0.36.
Work on C37A A65G yielded a self-cleavage of 0.16.
For C37G A57G, the self-cleavage was 0.44.
C37U G70A showed a self-cleavage of 0.32.
With C37G C68A the self-cleavage was 0.18.
In the case of C37G U72C, the self-cleavage is reported as 1.14.
For C37G U72A, the self-cleavage was 0.92.
C38A A57G showed a self-cleavage of 0.19.
C37U A77U showed a self-cleavage of 0.91.
With C37U A77G the self-cleavage was 0.78.
For C37U U51A, the self-cleavage was 0.58.
In the case of C37U U51G, the self-cleavage is reported as 0.61.
Work on C37U U51C yielded a self-cleavage of 0.67.
C37A A77G gave a self-cleavage of 0.18.
Work on C37A A77U yielded a self-cleavage of 0.28.
In the case of C39A C81G, the self-cleavage is reported as 0.16.
With C37U U76A the self-cleavage was 0.55.
Work on C37U U76C yielded a self-cleavage of 0.57.
With C38A U78C the self-cleavage was 0.33.
C38U U78C gave a self-cleavage of 0.67.
Work on C38U U78A yielded a self-cleavage of 1.17.
C38U C39U showed a self-cleavage of 0.26.
With C37U U78G the self-cleavage was 1.
C37U U78C gave a self-cleavage of 0.56.
Work on C38A U58C yielded a self-cleavage of 0.24.
Variant G36U A77G has a self-cleavage of 0.12.
Variant G36U A77U has a self-cleavage of 0.19.
C38U U49G showed a self-cleavage of 0.37.
C38U U49C gave a self-cleavage of 0.34.
For C37G U49C, the self-cleavage was 0.38.
For C39A A77G, the self-cleavage was 0.22.
C39A A77U showed a self-cleavage of 0.32.
C37A U67G gave a self-cleavage of 0.17.
With C37A U67C the self-cleavage was 0.13.
In the case of C37A U67A, the self-cleavage is reported as 0.14.
Work on C37U A65U yielded a self-cleavage of 0.16.
C37U A65G showed a self-cleavage of 0.28.
With C37G U80C the self-cleavage was 1.
C37G U80G showed a self-cleavage of 1.16.
Variant C37G U80A has a self-cleavage of 1.18.
C37G A75U gave a self-cleavage of 1.13.
With C37G C40A the self-cleavage was 0.29.
Work on C38A U72A yielded a self-cleavage of 0.34.
C38A U72C showed a self-cleavage of 0.53.
C38A U72G gave a self-cleavage of 0.17.
Variant C39A C68G has a self-cleavage of 0.17.
In the case of C39A A56U, the self-cleavage is reported as 0.09.
Variant C39A A56G has a self-cleavage of 0.26.
For G36U, the self-cleavage was 0.24.
Variant C37G C62G has a self-cleavage of 0.5.
Variant C38U U72A has a self-cleavage of 0.37.
Work on C38U U72C yielded a self-cleavage of 1.01.
Variant C37G A64U has a self-cleavage of 0.22.
Work on C37G A64G yielded a self-cleavage of 0.54.
Variant C39A U67A has a self-cleavage of 0.34.
C39A U67C gave a self-cleavage of 0.16.
G36U U48C gave a self-cleavage of 0.17.
For C37G A77U, the self-cleavage was 0.61.
In the case of C38A U48A, the self-cleavage is reported as 0.36.
In the case of C38A U74G, the self-cleavage is reported as 0.27.
In the case of C38A U60C, the self-cleavage is reported as 0.37.
With C38A U60A the self-cleavage was 0.2.
G36C U51A showed a self-cleavage of 0.16.
G36C U51C showed a self-cleavage of 0.39.
In the case of C38U, the self-cleavage is reported as 0.9.
In the case of C38A, the self-cleavage is reported as 0.3.
In the case of C38G, the self-cleavage is reported as 0.26.
With G36C U69C the self-cleavage was 0.11.
For C37U U67C, the self-cleavage was 0.22.
With C37A G52U the self-cleavage was 0.35.
Variant C37U C59A has a self-cleavage of 0.22.
Work on C39A U43C yielded a self-cleavage of 0.4.
Variant C39A U43A has a self-cleavage of 0.38.
With C37U U60C the self-cleavage was 0.35.
Work on C37U U60A yielded a self-cleavage of 0.24.
C37A U74C gave a self-cleavage of 0.17.
C37U U41A showed a self-cleavage of 0.18.
Work on C37U U41C yielded a self-cleavage of 0.89.
Work on C38U U74C yielded a self-cleavage of 1.26.
C38U U74A showed a self-cleavage of 1.1.
C38G A75G showed a self-cleavage of 0.27.
Work on C39A yielded a self-cleavage of 0.31.
With G36C U66C the self-cleavage was 0.23.
Work on C37U U43G yielded a self-cleavage of 0.19.
C37U U43C showed a self-cleavage of 0.31.
C37U A45U showed a self-cleavage of 0.4.
Work on C37U A45C yielded a self-cleavage of 0.29.
Variant C37U A45G has a self-cleavage of 0.5.
For C38U G55U, the self-cleavage was 0.8.
For C38U G55A, the self-cleavage was 0.4.
In the case of C37G U74A, the self-cleavage is reported as 1.13.
In the case of C37G U74C, the self-cleavage is reported as 0.9.
For C38U G63A, the self-cleavage was 0.6.
C37G U51G showed a self-cleavage of 0.78.
Work on C38U U41A yielded a self-cleavage of 0.42.
C38U U41C gave a self-cleavage of 0.87.
In the case of C38U U41G, the self-cleavage is reported as 0.42.
C38U G53A gave a self-cleavage of 0.89.
For C37A U76C, the self-cleavage was 0.35.
Work on G36C U60A yielded a self-cleavage of 0.08.
G36C U60C gave a self-cleavage of 0.13.
Variant C38A A45U has a self-cleavage of 0.33.
For C38A U43A, the self-cleavage was 0.34.
Work on C38U A45U yielded a self-cleavage of 0.35.
Work on C38U A45G yielded a self-cleavage of 0.58.
Work on C38A U69A yielded a self-cleavage of 0.19.
Variant C39A U60C has a self-cleavage of 0.13.
Work on C39A U60G yielded a self-cleavage of 0.09.
In the case of C39A U60A, the self-cleavage is reported as 0.18.
For C38A U51C, the self-cleavage was 0.18.
C38A U51A showed a self-cleavage of 0.17.
For C38A U49C, the self-cleavage was 0.16.
Variant C38A U49A has a self-cleavage of 0.27.
For C39A U58C, the self-cleavage was 0.19.
With C39A C71U the self-cleavage was 0.11.
C38A U66C showed a self-cleavage of 0.15.
For C38A U66A, the self-cleavage was 0.12.
Variant C37U U49A has a self-cleavage of 0.38.
C37U U49C showed a self-cleavage of 0.37.
In the case of C37A U48A, the self-cleavage is reported as 0.12.
In the case of C37A U48C, the self-cleavage is reported as 0.41.
For C38U A65G, the self-cleavage was 0.32.
Variant C38U U76C has a self-cleavage of 1.01.
With C38U U76A the self-cleavage was 1.16.
C37A U60C showed a self-cleavage of 0.09.
Variant C37A U60A has a self-cleavage of 0.14.
Work on C37A C59U yielded a self-cleavage of 0.24.
Work on G36C U72G yielded a self-cleavage of 0.19.
Variant C38A A47G has a self-cleavage of 0.2.
For C38A A47C, the self-cleavage was 0.5.
In the case of G36U C71U, the self-cleavage is reported as 0.1.
With G36U A47G the self-cleavage was 0.11.
For G36U A47U, the self-cleavage was 0.08.
In the case of C38U A57U, the self-cleavage is reported as 0.39.
C38U A57G gave a self-cleavage of 0.39.
